This is an account of results in article PMC3017772, “The CaaX specificities of Arabidopsis protein prenyltransferases explain era1 and ggb phenotypes” (BMC Plant Biology, 2010).

Assay [1] addresses recombinant Arabidopsis protein farnesyltransferase (PFT) (Arabidopsis (ecotype Col-0)) (UniProt Q9LX33).
The target of assay [2] is recombinant Arabidopsis protein geranylgeranyltransferase type 1 (PGGT1) (Arabidopsis (ecotype Col-0)) (UniProt Q9LX33).
recombinant Arabidopsis protein geranylgeranyltransferase type 1 (PGGT1) (Arabidopsis (ecotype Col-0)), sequence (Q9LX33 whole entry, chain 1 of 2): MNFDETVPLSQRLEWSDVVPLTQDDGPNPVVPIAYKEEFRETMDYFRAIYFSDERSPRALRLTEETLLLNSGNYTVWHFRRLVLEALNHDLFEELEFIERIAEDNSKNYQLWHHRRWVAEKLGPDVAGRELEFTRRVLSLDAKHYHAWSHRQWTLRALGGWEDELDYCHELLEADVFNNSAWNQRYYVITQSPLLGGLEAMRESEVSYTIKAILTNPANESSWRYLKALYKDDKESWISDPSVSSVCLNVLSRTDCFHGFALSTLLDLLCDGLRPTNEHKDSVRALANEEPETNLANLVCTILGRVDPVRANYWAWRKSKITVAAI
recombinant Arabidopsis protein geranylgeranyltransferase type 1 (PGGT1) (Arabidopsis (ecotype Col-0)), sequence (O80642 whole entry, chain 2 of 2, further chain): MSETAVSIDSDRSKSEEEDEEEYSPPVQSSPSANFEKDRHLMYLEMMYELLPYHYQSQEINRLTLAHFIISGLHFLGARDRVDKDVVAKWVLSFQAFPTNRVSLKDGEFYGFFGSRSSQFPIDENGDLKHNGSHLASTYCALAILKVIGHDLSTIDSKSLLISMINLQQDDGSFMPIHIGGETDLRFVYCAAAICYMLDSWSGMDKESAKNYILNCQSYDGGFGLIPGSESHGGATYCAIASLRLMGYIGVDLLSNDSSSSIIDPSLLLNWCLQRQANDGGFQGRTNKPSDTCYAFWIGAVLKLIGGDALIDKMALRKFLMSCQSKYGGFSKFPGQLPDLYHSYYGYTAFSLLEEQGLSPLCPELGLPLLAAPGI

recombinant Arabidopsis protein farnesyltransferase (PFT) (Arabidopsis (ecotype Col-0)), sequence (Q9LX33 whole entry, chain 1 of 2): as the sequence (Q9LX33 whole entry, chain 1 of 2) above
recombinant Arabidopsis protein farnesyltransferase (PFT) (Arabidopsis (ecotype Col-0)), sequence (Q38920 whole entry, chain 2 of 2, further chain): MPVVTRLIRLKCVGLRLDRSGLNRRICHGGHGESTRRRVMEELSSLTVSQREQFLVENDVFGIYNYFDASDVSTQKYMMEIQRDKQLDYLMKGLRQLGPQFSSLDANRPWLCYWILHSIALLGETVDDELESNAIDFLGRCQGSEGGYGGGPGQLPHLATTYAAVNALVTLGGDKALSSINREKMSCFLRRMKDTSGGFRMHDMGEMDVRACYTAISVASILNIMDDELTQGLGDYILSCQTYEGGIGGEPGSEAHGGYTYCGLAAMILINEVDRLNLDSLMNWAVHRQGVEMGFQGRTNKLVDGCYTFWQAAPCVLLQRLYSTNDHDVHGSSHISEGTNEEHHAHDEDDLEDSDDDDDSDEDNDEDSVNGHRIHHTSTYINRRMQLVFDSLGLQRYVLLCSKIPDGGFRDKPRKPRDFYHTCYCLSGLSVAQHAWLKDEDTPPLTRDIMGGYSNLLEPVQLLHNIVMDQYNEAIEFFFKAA

Regarding GFP-BD-CVII, the Km for the CaaX protein substrate; in vitro prenylation by purified PFT with [1-3H]farnesyl diphosphate, Lineweaver-Burk analysis in assay [1] turned out to be 6.9 µM. Further, the Km for the CaaX protein substrate; in vitro prenylation by purified PGGT1 with [1-3H]geranylgeranyl diphosphate, Lineweaver-Burk analysis in assay [2] came out at 19 µM.

Take GFP-BD-CVIL: the Km for the CaaX protein substrate; in vitro prenylation by purified PFT with [1-3H]farnesyl diphosphate, Lineweaver-Burk analysis in assay [1] amounted to 7 µM. The Km for the CaaX protein substrate; in vitro prenylation by purified PGGT1 with [1-3H]geranylgeranyl diphosphate, Lineweaver-Burk analysis in assay [2] was 17.2 µM.

GFP-BD-CVIM: the Km for the CaaX protein substrate; in vitro prenylation by purified PFT with [1-3H]farnesyl diphosphate, Lineweaver-Burk analysis in assay [1] was 5.4 µM. Moreover, the Km for the CaaX protein substrate; in vitro prenylation by purified PGGT1 with [1-3H]geranylgeranyl diphosphate, Lineweaver-Burk analysis in assay [2] amounted to 5.8 µM.

For the substance GFP-BD-CVIQ, the Km for the CaaX protein substrate; in vitro prenylation by purified PFT with [1-3H]farnesyl diphosphate, Lineweaver-Burk analysis in assay [1] was 5.5 µM. Moreover, the Km for the CaaX protein substrate; in vitro prenylation by purified PGGT1 with [1-3H]geranylgeranyl diphosphate, Lineweaver-Burk analysis in assay [2] came to 3.5 µM.
